One block for each molecule: values may come before it. *1 amine or outer side, *2 acyl side, *3 side chain or, on linkers, in order; H or OH if unused. Where no end group is shown, it is not given here. [ ]: non-standard residue; d: D form. CEL = Nε-carboxy-ethyl-lysine, CC(NCCCC[C@H](N[*:1])C(=O)[*:2])C(=O)[*:3]; CML = Nε-carboxy-methyl-lysine, O=C([C@H](CCCCNCC(=O)[*:3])N[*:1])[*:2]
Columns and labels:
[1] = tested on: RAGE; conditions: free amino acid, not embedded in a peptide; ref Xie et al., 2008; cited from earlier work
[2] = target: V domain of RAGE (Homo sapiens, UniProt Q15109); assay: Tryptophan fluorescence titration, wild type V domain; conditions: single site binding isotherm, 25 °C, pH 6.5, 100 mM NaCl
[3] = target: V domain of RAGE (wild type) (human, UniProt Q15109 24-125); assay: other fluorescence titration
[4] = target: K52A, R98A V domain of RAGE (human, UniProt Q15109 24-125, K52A | R98A); assay: other fluorescence titration
[5] = target: K52A V domain of RAGE (human, UniProt Q15109 24-125, K52A); assay: other fluorescence titration
[6] = target: R98A V domain of RAGE (human, UniProt Q15109 24-125, R98A); assay: other fluorescence titration
[7] = target: the molecule itself; assay: NMR gradient diffusion

K52A, R98A V domain of RAGE, sequence (Q15109 24-125 K52A/R98A): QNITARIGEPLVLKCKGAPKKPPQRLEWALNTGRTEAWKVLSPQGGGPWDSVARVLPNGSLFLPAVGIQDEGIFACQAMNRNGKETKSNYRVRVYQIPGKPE
K52A V domain of RAGE, sequence (Q15109 24-125 K52A): as the sequence (Q15109 24-125 K52A/R98A) above, with A75R counted along it
R98A V domain of RAGE, sequence (Q15109 24-125 R98A): as the sequence (Q15109 24-125 K52A/R98A) above, with A29K counted along it

- Kd [2]: 104 ± 5 µM
Molecule: CC(NCCCC[C@H](NC(=O)[C@H](Cc1ccccc1)NC(=O)[C@H](CCC(=O)O)NC(=O)[C@@H](N)CC(=O)O)C(=O)N[C@@H](C)C(=O)N[C@@H](CC(=O)O)C(=O)N[C@@H](CCC(=O)O)C(=O)O)C(=O)O (stereo partly shown) [DEF(CEL)ADE]

- Kd [3]: 87 ± 5 µM
B1: F(CML)DLGEE (peptide)
peptide: F[CML]DLGEE

- Kd [3]: 97 ± 3 µM
B4: DEF(CML)ADE (peptide)
peptide: DEF[CML]ADE

Second part, the molecule before the results:

Molecule: CC(NCCCC[C@H](N)C(=O)O)C(=O)O (stereo partly shown) [CEL, Nε-carboxy-ethyl-lysine]
- binding to RAGE [1]: do not bind

Molecule: N[C@@H](CCCCNCC(=O)O)C(=O)O [CML, Nε-carboxy-methyl-lysine]
- binding to RAGE [1]: do not bind

Molecule: CC(C)C[C@H](NC(=O)[C@H](CC(=O)O)NC(=O)[C@H](CCCCNC(C)C(=O)O)NC(=O)[C@@H](N)Cc1ccccc1)C(=O)NCC(=O)N[C@@H](CCC(=O)O)C(=O)N[C@@H](CCC(=O)O)C(=O)O (stereo partly shown) [F(CEL)DLGEE]
- Kd [2]: 93 ± 6 µM

B2: DEF(CEL)ADE (peptide)
peptide: DEF[CEL]ADE
- Kd [4]: 912 ± 42 µM
- Kd [5]: 560 ± 32 µM
- Kd [6]: 685 ± 26 µM

B3: VC1 domain of RAGE (wild type) (domain or fragment, human, UniProt Q15109 23-243, looked up)
chain: AQNITARIGEPLVLKCKGAPKKPPQRLEWKLNTGRTEAWKVLSPQGGGPWDSVARVLPNGSLFLPAVGIQDEGIFRCQAMNRNGKETKSNYRVRVYQIPGKPEIVDSASELTAGVPNKVGTCVSEGSYPAGTLSWHLDGKPLVPNEKGVSVKEQTRRHPETGLFTLQSELMVTPARGGDPRPTFSCSFSPGLPRHRALRTAPIQPRVWEPVPLEEVQLVVE
- binding result [7]: binds

— publication PMC3150472 (Structure (London, England : 1993), 2011)
